{"source": "patent US20260265379A1", "binders": {"B1": {"name": "bsAb005 (bispecific antibody)", "heavy": "QVQLVQSGAEVKKPGASVKLSCKASGYIFTRYYMYWVKQRPGQGLEWIGEINPNNGGTKFNEKFKNRATLTVDKSISTAYMELSRLRSDDTAVYYCSREDDYDGTPFAMDYWGQGTLVTVSSASTKGPSVFPLAPSSKSTSGGTAALGCLVKDYFPEPVTVSWNSGALTSGVHTFPAVLQSSGLYSLSSVVTVPSSSLGTQTYICNVNHKPSNTKVDKRVEPKSCDKTHTCPPCPAPEFEGGPSVFLFPPKPKDTLMISRTPEVTCVVVDVSHEDPEVKFNWYVDGVEVHNAKTKPREEQYNSTYRVVSVLTVLHQDWLNGKEYKCKVSNKALPASIEKTISKAKGQPREPQVYTLPPSREEMTKNQVSLTCLVKGFYPSDIAVEWESNGQPENNYKTTPPVLDSDGSFFLYSKLTVDKSRWQQGNVFSCSVMHEALHNHYTQKSLSLSPGGGGGSGGGGSGGGGSGGGGSEIVLTQSPATLSLSPGERATLSCRASKGVSTSGYSYLHWYQQKPGQAPRLLIYLASYLESGVPARFSGSGSGTDFTLTISSLEPEDFAVYYCQHSRDLPLTFGGGTKVEIKGGGGSGGGGSGGGGSGGGGSQVQLVQSGVEVKKPGASVKVSCKASGYTFTNYYMYWVRQAPGQGLEWMGGINPSNGGTNFNEKFKNRVTLTTDSSTTTAYMELKSLQFDDTAVYYCARRDYRFDMGFDYWGQGTTVTVSS", "light": "not shown"}, "B2": {"name": "bsAb035 (bispecific antibody, not shown: small tags and cut ends)", "heavy (part 1 of 2)": "QVQLVQSGAEVKKPGASVKLSCKASGYIFTRYYMYWVKQRPGQGLEWIGEINPNNGGTKFNEKFKNRATLTVDKSISTAYMELSRLRSDDTAVYYCSREDDYDGTPFAMDYWGQGTLVTVSS", "heavy (part 2 of 2)": "GGGGSGGGGSGGGGSGGGGSEVQLVESGGGLVQPGGSLRLSCAASGFTFSRYWMSWVRQAPGKGLEWVANIKQDGSEKYYVDSVKGRFTISRDNAKNSLYLQMNSLRAEDTAVYYCAREGGWFGELAFDYWGQGTLVTVSSGGGGSGGGGSGGGGSGGGGSEIVLTQSPGTLSLSPGERATLSCRASQRVSSSYLAWYQQKPGQAPRLLIYDASSRATGIPDRFSGSGSGTDFTLTISRLEPEDFAVYYCQQYGSLPWTFGQGTKVEIK", "heavy": "QVQLVQSGAEVKKPGASVKLSCKASGYIFTRYYMYWVKQRPGQGLEWIGEINPNNGGTKFNEKFKNRATLTVDKSISTAYMELSRLRSDDTAVYYCSREDDYDGTPFAMDYWGQGTLVTVSS", "light": "not shown"}, "B3": {"name": "bsAb040 (bispecific antibody, not shown: small tags and cut ends)", "heavy (part 1 of 2)": "QVQLVQSGAEVKKPGASVKLSCKASGYIFTRYYMYWVKQRPGQGLEWIGEINPNNGGTKFNEKFKNRATLTVDKSISTAYMELSRLRSDDTAVYYCSREDDYDGTPFAMDYWGQGTLVTVSS", "heavy (part 2 of 2)": "GGGGSGGGGSGGGGSGGGGSEIVLTQSPGTLSLSPGERATLSCRASQRVSSSYLAWYQQKPGQAPRLLIYDASSRATGIPDRFSGSGSGTDFTLTISRLEPEDFAVYYCQQYGSLPWTFGQGTKVEIKGGGGSGGGGSGGGGSGGGGSEVQLVESGGGLVQPGGSLRLSCAASGFTFSRYWMSWVRQAPGKGLEWVANIKQDGSEKYYVDSVKGRFTISRDNAKNSLYLQMNSLRAEDTAVYYCAREGGWFGELAFDYWGQGTLVTVSS", "heavy": "QVQLVQSGAEVKKPGASVKLSCKASGYIFTRYYMYWVKQRPGQGLEWIGEINPNNGGTKFNEKFKNRATLTVDKSISTAYMELSRLRSDDTAVYYCSREDDYDGTPFAMDYWGQGTLVTVSS", "light": "not shown"}, "B4": {"name": "bsAb051 (bispecific antibody, not shown: small tags and cut ends; a dimerising Fc or GST)", "heavy (part 1 of 2)": "QVQLVQSGAEVKKPGASVKLSCKASGYIFTRYYMYWVKQRPGQGLEWIGEINPNNGGTKFNEKFKNRATLTVDKSISTAYMELSRLRSDDTAVYYCSREDDYDGTPFAMDYWGQGTLVTVSS", "heavy (part 2 of 2)": "GGGGSGGGGSGGGGSGGGGSEVQLVESGGGLVQPGGSLRLSCAASGFTFSRYWMSWVRQAPGKGLEWVANIKQDGSEKYYVDSVKGRFTISRDNAKNSLYLQMNSLRAEDTAVYYCAREGGWFGELAFDYWGQGTLVTVSSGGGGSGGGGSGGGGSGGGGSEIVLTQSPGTLSLSPGERATLSCRASQRVSSSYLAWYQQKPGQAPRLLIYDASSRATGIPDRFSGSGSGTDFTLTISRLEPEDFAVYYCQQYGSLPWTFGQGTKVEIK", "heavy": "GGGGSGGGGSGGGGSGGGGSEVQLVESGGGLVQPGGSLRLSCAASGFTFSRYWMSWVRQAPGKGLEWVANIKQDGSEKYYVDSVKGRFTISRDNAKNSLYLQMNSLRAEDTAVYYCAREGGWFGELAFDYWGQGTLVTVSSGGGGSGGGGSGGGGSGGGGSEIVLTQSPGTLSLSPGERATLSCRASQRVSSSYLAWYQQKPGQAPRLLIYDASSRATGIPDRFSGSGSGTDFTLTISRLEPEDFAVYYCQQYGSLPWTFGQGTKVEIK", "light": "not shown"}, "B5": {"name": "bsAb050 (bispecific antibody, not shown: small tags and cut ends)", "heavy 1": "EVQLVESGGGLVQPGGSLRLSCAASGFTFSRYWMSWVRQAPGKGLEWVANIKQDGSEKYYVDSVKGRFTISRDNAKNSLYLQMNSLRAEDTAVYYCAREGGWFGELAFDYWGQGTLVTVSSGGGGSGGGGSGGGGSGGGGSEIVLTQSPGTLSLSPGERATLSCRASQRVSSSYLAWYQQKPGQAPRLLIYDASSRATGIPDRFSGSGSGTDFTLTISRLEPEDFAVYYCQQYGSLPWTFGQGTKVEIKGGGGSGGGGSGGGGSGGGGSQVQLVQSGAEVKKPGASVKLSCKASGYIFTRYYMYWVKQRPGQGLEWIGEINPNNGGTKFNEKFKNRATLTVDKSISTAYMELSRLRSDDTAVYYCSREDDYDGTPFAMDYWGQGTLVTVSS", "heavy 2": "QVQLVQSGAEVKKPGASVKLSCKASGYIFTRYYMYWVKQRPGQGLEWIGEINPNNGGTKFNEKFKNRATLTVDKSISTAYMELSRLRSDDTAVYYCSREDDYDGTPFAMDYWGQGTLVTVSS", "light": "not shown"}, "B6": {"name": "bsAb048 (bispecific antibody, not shown: small tags and cut ends)", "heavy 1": "EIVLTQSPGTLSLSPGERATLSCRASQRVSSSYLAWYQQKPGQAPRLLIYDASSRATGIPDRFSGSGSGTDFTLTISRLEPEDFAVYYCQQYGSLPWTFGQGTKVEIKGGGGSGGGGSGGGGSGGGGSEVQLVESGGGLVQPGGSLRLSCAASGFTFSRYWMSWVRQAPGKGLEWVANIKQDGSEKYYVDSVKGRFTISRDNAKNSLYLQMNSLRAEDTAVYYCAREGGWFGELAFDYWGQGTLVTVSSGGGGSGGGGSGGGGSGGGGSQVQLVQSGAEVKKPGASVKLSCKASGYIFTRYYMYWVKQRPGQGLEWIGEINPNNGGTKFNEKFKNRATLTVDKSISTAYMELSRLRSDDTAVYYCSREDDYDGTPFAMDYWGQGTLVTVSS", "heavy 2": "QVQLVQSGAEVKKPGASVKLSCKASGYIFTRYYMYWVKQRPGQGLEWIGEINPNNGGTKFNEKFKNRATLTVDKSISTAYMELSRLRSDDTAVYYCSREDDYDGTPFAMDYWGQGTLVTVSS", "light": "not shown"}, "B7": {"name": "bsAb055 (bispecific antibody, not shown: a dimerising Fc or GST; small tags and cut ends)", "heavy 1": "GGGGSGGGGSGGGGSGGGGSEVQLVESGGGLVQPGGSLRLSCAASGFTFSRYWMSWVRQAPGKGLEWVANIKQDGSEKYYVDSVKGRFTISRDNAKNSLYLQMNSLRAEDTAVYYCAREGGWFGELAFDYWGQGTLVTVSSGGGGSGGGGSGGGGSGGGGSEIVLTQSPGTLSLSPGERATLSCRASQRVSSSYLAWYQQKPGQAPRLLIYDASSRATGIPDRFSGSGSGTDFTLTISRLEPEDFAVYYCQQYGSLPWTFGQGTKVEIK", "heavy 2": "QVQLVQSGAEVKKPGASVKLSCKASGYIFTRYYMYWVKQRPGQGLEWIGEINPNNGGTKFNEKFKNRATLTVDKSISTAYMELSRLRSDDTAVYYCSREDDYDGTPFAMDYWGQGTLVTVSS", "light": "not shown"}}}
{"biological_target": "BTN3A expressed at the cell surface (human), O00481", "sequence (O00481 30-513)": "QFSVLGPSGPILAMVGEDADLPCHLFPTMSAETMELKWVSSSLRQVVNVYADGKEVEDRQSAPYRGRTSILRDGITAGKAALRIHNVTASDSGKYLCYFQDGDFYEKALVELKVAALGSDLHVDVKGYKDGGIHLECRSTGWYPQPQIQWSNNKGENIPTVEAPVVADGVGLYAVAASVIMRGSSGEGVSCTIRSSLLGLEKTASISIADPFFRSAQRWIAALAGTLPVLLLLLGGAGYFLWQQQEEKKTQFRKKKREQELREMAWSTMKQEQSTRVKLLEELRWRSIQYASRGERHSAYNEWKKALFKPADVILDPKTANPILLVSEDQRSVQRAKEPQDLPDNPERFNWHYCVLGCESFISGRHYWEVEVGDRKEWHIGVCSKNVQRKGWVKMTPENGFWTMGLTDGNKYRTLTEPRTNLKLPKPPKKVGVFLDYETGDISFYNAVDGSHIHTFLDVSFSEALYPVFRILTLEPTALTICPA", "experiment": "cell-based or functional assay"}
{"binder": "B1", "Jurkat-Vy9Vo2 TCR MOP activation at 0.5 nM (fold-change to medium)": 6, "Jurkat-Vy9Vo2 TCR MOP activation at 5 nM (fold-change to medium)": 4.2}
{"binder": "B2", "Jurkat-Vy9Vo2 TCR MOP activation at 0.5 nM (fold-change to medium)": 14.1, "Jurkat-Vy9Vo2 TCR MOP activation at 5 nM (fold-change to medium)": 11.2}
{"binder": "B3", "Jurkat-Vy9Vo2 TCR MOP activation at 0.5 nM (fold-change to medium)": 10.4, "Jurkat-Vy9Vo2 TCR MOP activation at 5 nM (fold-change to medium)": 8.8}
{"binder": "B4", "Jurkat-Vy9Vo2 TCR MOP activation at 0.5 nM (fold-change to medium)": 1.5, "Jurkat-Vy9Vo2 TCR MOP activation at 5 nM (fold-change to medium)": 2.3}
{"binder": "B5", "Jurkat-Vy9Vo2 TCR MOP activation at 0.5 nM (fold-change to medium)": 10.1, "Jurkat-Vy9Vo2 TCR MOP activation at 5 nM (fold-change to medium)": 9.3}
{"binder": "B6", "Jurkat-Vy9Vo2 TCR MOP activation at 0.5 nM (fold-change to medium)": 8.2, "Jurkat-Vy9Vo2 TCR MOP activation at 5 nM (fold-change to medium)": 7.9}
{"binder": "B7", "Jurkat-Vy9Vo2 TCR MOP activation at 0.5 nM (fold-change to medium)": 2.9, "Jurkat-Vy9Vo2 TCR MOP activation at 5 nM (fold-change to medium)": 11.8}
